These results are taken from patent US20240415919A1, “COMPOSITIONS AND METHODS FOR TREATMENT OF AUTOIMMUNE DISORDERS AND CANCER” (Dana-Farber Cancer Institute, Inc., priority 2021, published 2024).

One experiment addresses Ly49F (mouse) (UniProt Q60653). Nature of the experiment: cell-based or functional assay.
Another experiment deals with Balb/C heart allografts. The experiment in a line: Balb/C heart transplantation into skin-sensitized B6 hosts after peptide vaccination. The settings on record: immunized hosts, FIG. 11B.
Another experiment deals with FL9.2 T cells. Nature of the experiment: FL9 peptide immunization of hosts adoptively transferred with FL9.2 T cells. The class given is in vivo, mouse. On the procedure:
CD45.1+B6 hosts were adoptively transferred with FL9.2 T cells and immunized i.p. with FL9 in CFA or no peptide (CFA alone) on day 0. Three days later, activation (CD69) proliferation of FL9.2 T cells (Ki67) was measured.
CD45.1^+ B6 or TCRα^−/− mice were transferred with CFSE labelled 2×10^6 FL9.2 Tg T cells followed by i.p. immunization with 100 μg FL9 or FL9-68 peptides in CFA. Proliferation and activation of FL9.2 Tg T cells in the adoptive hosts were analzyed by assessing CFSE dilution, Ki67 and CD69 expression at day 3 and 6 after transfer.
CD45.1^+B6 or TCRα^−/− mice were transferred with CFSE labelled 2×10^6 FL9.2 Tg T cells followed by i.p. immunization with 100 μg FL9 or FL9-68 peptides in CFA. Proliferation and activation of FL9.2 Tg T cells in the adoptive hosts were analzyed by assessing CFSE dilution, Ki67 and CD69 expression at day 3 and 6 after transfer.

Experiment [1] has as its target T1, Hsp60 (Hsp60p216) peptide on Qa-1b (mouse).
T1 peptide: GMKFDRGYI
Nature of the experiment: multimer staining.

The target in experiment [2] is T2, FL9 self-peptide (source protein not named) peptide on Qa-1b (mouse).
T2 peptide: FYAEATPML
The experiment in a line: Kd or kinetics.

The target in experiment [3] is T3, FL9-68, synthetic superagonist variant of the FL9 self-peptide (P to L at position 7) peptide on Qa-1b (mouse).
T3 peptide: FYAEATLML
The experiment in a line: activation reporter or marker.

Experiment [4] has as its target T2, FL9 self-peptide (source protein not …). The experiment in a line: multimer staining.

Positions count from the first letter of the chain named. Bounds are passed on as bounds.

Chain of Ly49F (mouse) (Q60653 whole entry): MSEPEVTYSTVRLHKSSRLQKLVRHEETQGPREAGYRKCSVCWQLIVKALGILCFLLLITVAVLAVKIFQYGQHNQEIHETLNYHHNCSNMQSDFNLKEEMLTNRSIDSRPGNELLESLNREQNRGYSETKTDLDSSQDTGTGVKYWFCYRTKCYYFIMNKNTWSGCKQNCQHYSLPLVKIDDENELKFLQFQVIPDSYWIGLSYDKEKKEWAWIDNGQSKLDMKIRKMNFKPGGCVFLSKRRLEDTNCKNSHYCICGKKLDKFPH

“Chimeric anti-Ly49F Ab (HBF-719 with mIgG2a Fc) (antibody)” gave a depletion of Ly49F+ CD8 Treg in spleen, lymphocytes and blood with Ly49F (mouse) of over 95%. Turning to “FYAEATPML [FL9, Qa-1-associated self-peptide, reference compound]”, the “expansion of FL9-Qa-1 tetramer binding CD8 Treg (CD44+CD122+Ly49+CD8+T)” value with Balb/C heart allografts worked out at 8 fold. Besides, in the experiment with FL9.2 T cells (i.p. immunization with peptide in CFA, CD45.1+ B6 or TCRα-/- hosts), the “in vivo activation/proliferation of transferred FL9 TCR+ CD8 T cells” value is “no in vivo stimulation of FL9.2 T cells”. Also, in the experiment on FL9.2 T cells (immunization of mice with the self-peptide), the “expansion of CD8 Treg after immunization” value was “did not elicit detectable expansion of CD8 Treg”.

B1: FL9.8 TCR (TCR, V domains shown)
Valpha: AQSVTQPDARVTVSEGASLQLRCKYSYFGTPYLFWYVQYPRQGLQLLLKYYPGDPVVQGVNGFEAEFSKSNSSFHLRKASVHWSDWAVYFCAVRANYAQGLTFGLGTRVSVFP
Vbeta: NSGVVQSPRYIIKGKGERSILKCIPISGHLSVAWYQQTQGQELKFFIQHYDKMERDKGNLPSRFSVQQFDDYHSEMNMSALELEDSAVYFCASSLLGGPSAETLYFGSGTRLTVL
With B1, the figures for the binding result in experiment [1], in experiment [2] and in experiment [3] were “no recognition”, “recognises” and “recognises”, respectively.

B2: FL9.34 (TCR, V domains shown)
Valpha: B1 Valpha with A95G, N96Q, Y97G, A98G, Q99R, G100A, T102I, L105T, R108T, F112S
Vbeta: NSGVVQSPRYIIKGKGERSILKCIPISGHLSVAWYQQTQGQELKFFIQHYDKMERDKGNLPSRFSVQQFDDYHSEMNMSALELEDSAVYFCASSPGPSQNTLYFGAGTRLSVL
Regarding B2, in experiment [4], the binding result is reported as “recognises”.

B3: FL9.26 (TCR, V domains shown)
Valpha: AQSVTQPDARVTVSEGASLQLRCKYSYFGTPYLFWYVQYPRQGLQLLLKYYPGDPVVQGVNGFEAEFSKSNSSFHLRKASVHWSDWAVYFCAVSTGGYKVVFGSGTRLLVSP
Vbeta: NSGVVQSPRYIIKGKGERSILKCIPISGHLSVAWYQQTQGQELKFFIQHYDKMERDKGNLPSRFSVQQFDDYHSEMNMSALELEDSAVYFCASSHRSFSGNTLYFGEGSRLIVV
B3: in experiment [4], the binding result is reported as “recognises”.

B4: FL9.2 TCR (TCR, V domains shown)
Valpha: AQSVTQPDARVTVSEGASLQLRCKYSYFGTPYLFWYVQYPRQGLQLLLKYYPGDPVVQGVNGFEAEFSKSNSSFHLRKASVHWSDWAVYFCAVRANTGKLTFGDGTVLTVKP
Vbeta: DSGVVQSPRHIIKEKGGRSVLTCIPISGHSNVVWYQQTLGKELKFLIQHYEKVERDKGFLPSRFSVQQFDDYHSEMNMSALELEDSAMYFCASSPRLASAETLYFGSGTRLTVL
For B4, in experiment [3], the binding result is given as “recognises”.

B5: FL9.43 (TCR, V domains shown)
Valpha: B4 Valpha with R94K, A95S, N96T, T97G, G98S, T101S, D104K, T106A, V107K, K111S
Vbeta: B3 Vbeta with H95P, S97L, F98G, G100A, N101E, E107S, S109T, I112T, V114L
With B5, the binding result in experiment [4] is given as “recognises”.

B6: FL9.30 (TCR, V domains shown)
Valpha: AQSVTQPDARVTVSEGASLQLRCKYSYFGTPYLFWYVQYPRQGLQLLLKYYPGDPVVQGVNGFEAEFSKSNSSFHLRKASVHWSDWAVYFCAVSSNNAGAKLTFGGGTRLTVRP
Vbeta: B4 Vbeta with P95R, L97P
For the molecule B6, the binding result in experiment [4] was “recognises”.

B7: FL9.5 (TCR, V domains shown)
Valpha: B3 Valpha with S94K, T95G, G97N, V100P, V101T, S104K, R107S, L109V, S111H
Vbeta: NSGVVQSPRYIIKGKGERSILKCIPISGHLSVAWYQQTQGQELKFFIQHYDKMERDKGNLPSRFSVQQFDDYHSEMNMSALELEDSAVYFCASSLTGAYEQYFGPGTRLTVL
For the molecule B7, the binding result in experiment [4] is “recognises”.

B8: FL9.38 (TCR, V domains shown)
Valpha: QQKVQQSPESLSVPEGGMASLNCTSSDRNFQYFWWYRQHSGEGPKALMSIFSDGDKKEGRFTAHLNKASLHVSLHIRDSQPSDSALYFCALSESSGSWQLIFGSGTQLTVMP
Vbeta: EAAVTQSPRSKVAVTGGKVTLSCHQTNNHDYMYWYRQDTGHGLRLIHYSYVADSTEKGDIPDGYKASRPSQENFSLILELASLSQTAVYFCASRDRGDQNTLYFGAGTRLSVL
On to B8, for which the binding result in experiment [4] is “no recognition”.

B9: FL9.31 (TCR, V domains shown)
Valpha: AQSVTQPDARVTVSEGASLQLRCKYSYFGTPYLFWYVQYPRQGLQLLLKYYPGDPVVQGVNGFEAEFSKSNSSFHLRKASVHWSDWAVYFCAVKDSGYNKLTFGKGTVLLVSP
Vbeta: NSGVVQSPRYIIKGKGERSILKCIPISGHLSVAWYQQTQGQELKFFIQHYDKMERDKGNLPSRFSVQQFDDYHSEMNMSALELEDSAVYFCASSLAGREQYFGPGTRLTVL
Consider B9, for which the binding result in experiment [4] was “recognises”.

B10: FL9.15 (TCR, V domains shown)
Valpha: GDSVTQTEGPVTVSESESLIINCTYSATSIAYPNLFWYVRYPGEGLQLLLKVITAGQKGSSRGFEATYNKETTSFHLQKASVQESDSAVYYCALGEASSGSWQLIFGSGTQLTVMP
Vbeta: DSGVVQSPRHIIKEKGGRSVLTCIPISGHSNVVWYQQTLGKELKFLIQHYEKVERDKGFLPSRFSVQQFDDYHSEMNMSALELEDSAMYFCASSLGQGNYAEQFFGPGTRLTVL
On to B10, for which, in experiment [4], the binding result is reported as “no recognition”.

B11: FL9.40 (TCR, V domains shown)
Valpha: AQSVTQPDARVTVSEGASLQLRCKYSYFGTPYLFWYVQYPRQGLQLLLKYYPGDPVVQGVNGFEAEFSKSNSSFHLRKASVHWSDWAVYFCAVTRYGSSGNKLIFGIGTLLSVKP
Vbeta: B4 Vbeta with A98G
As for B11, the binding result in experiment [4] is given as “recognises”.

B12: FL9.35 (TCR, V domains shown)
Valpha: B3 Valpha with T95M, G96M, V100L, V101T, S104T, R107S, S111D
Vbeta: B4 Vbeta with P95R, R96T, L97G, A98G
Take B12: in experiment [4], the binding result was “recognises”.

B13: FL9.41 (TCR, V domains shown)
Valpha: AQSVTQPDARVTVSEGASLQLRCKYSYFGTPYLFWYVQYPRQGLQLLLKYYPGDPVVQGVNGFEAEFSKSNSSFHLRKASVHWSDWAVYFCAVSIWATSSGQKLVFGQGTILKVYL
Vbeta: VTLLEQNPRWRLVPRGQAVNLRCILKNSQYPWMSWYQQDLQKQLQWLFTLRSPGDKEVKSLPGADYLATRVTDTELRLQVANMSQGRTLYCTCSARQGSGNTLYFGEGSRLIVV
With B13, the binding result in experiment [4] is “recognises”.
